Results taken from article PMC4682175 (2015).

Molecular target: T1, Neogenin (Mus musculus, UniProt P97798)
T1 chain: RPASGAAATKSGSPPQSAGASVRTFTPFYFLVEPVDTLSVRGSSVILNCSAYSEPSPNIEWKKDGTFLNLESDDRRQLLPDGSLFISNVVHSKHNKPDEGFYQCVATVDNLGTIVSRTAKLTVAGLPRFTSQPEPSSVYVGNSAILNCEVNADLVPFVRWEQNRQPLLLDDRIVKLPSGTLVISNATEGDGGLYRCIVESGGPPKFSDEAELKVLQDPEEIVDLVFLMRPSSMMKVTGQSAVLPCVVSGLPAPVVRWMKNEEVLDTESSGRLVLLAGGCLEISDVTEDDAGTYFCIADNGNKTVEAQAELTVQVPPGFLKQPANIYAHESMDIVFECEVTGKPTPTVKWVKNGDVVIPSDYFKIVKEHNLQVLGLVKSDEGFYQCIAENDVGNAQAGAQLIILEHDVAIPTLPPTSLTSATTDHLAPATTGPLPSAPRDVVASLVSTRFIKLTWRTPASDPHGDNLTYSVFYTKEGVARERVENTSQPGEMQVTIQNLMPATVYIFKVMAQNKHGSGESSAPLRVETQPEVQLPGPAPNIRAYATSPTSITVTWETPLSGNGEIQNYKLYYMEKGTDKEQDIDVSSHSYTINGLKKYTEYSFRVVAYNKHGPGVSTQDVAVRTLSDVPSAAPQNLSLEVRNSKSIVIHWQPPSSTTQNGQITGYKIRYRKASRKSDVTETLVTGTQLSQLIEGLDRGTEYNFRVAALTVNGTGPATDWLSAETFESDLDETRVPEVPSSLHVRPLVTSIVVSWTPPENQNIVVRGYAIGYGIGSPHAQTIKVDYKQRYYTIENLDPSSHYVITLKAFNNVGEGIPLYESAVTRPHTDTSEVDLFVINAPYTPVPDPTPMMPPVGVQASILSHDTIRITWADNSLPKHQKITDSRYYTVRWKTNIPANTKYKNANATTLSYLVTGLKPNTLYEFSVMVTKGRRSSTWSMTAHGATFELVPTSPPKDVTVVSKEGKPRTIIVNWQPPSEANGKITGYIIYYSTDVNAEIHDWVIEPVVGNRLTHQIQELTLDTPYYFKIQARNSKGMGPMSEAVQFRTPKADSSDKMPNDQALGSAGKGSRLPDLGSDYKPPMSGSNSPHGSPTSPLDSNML
Assay: saturation binding of draxin-AP to Neo1-transfected HEK293T cells, Scatchard analysis

B1: Draxin (protein)
chain: GTLASGSSARNLPETHSHLPSSALWVSQASHHGRRGLGKKDRGPGRPSRAQEGAVVTATKQASQMTLGQPPAGLLQNKELLLGLTLPYPEKEARSPAWERVKKRGREHKRRRDRLRLHRGRAAIRGPSSLMKKVEPSEDRMLEGTMEESSTSLAPTMFFLTMTDGATPTTEESRILPVTSLRPQTQPRSDGEVMPTLDMALFDWTDYEDLKPEVWPSAKKKEKHWSHFTSDGNETSPAEGDPCDHHQDCLPGTCCDLREHLCTPHNRGLNNKCFDDCMCMEGLRCYAKFHRNRRVTRRKGRCVEPETANGDQGSFINI
modifications: draxin alkaline phosphatase fusion
  Kd: 0.62 nM
